Residue numbers refer to the chain shown, from its start. Where two headings read alike, the source gives them in different places.
B1: LD97A (scFv)
scFv: QSALTQPRSVSGSPGQSVTISCAGTSSDVGSENYVSWYQQHPGKAPKLMIYQVNKRASGVPDRFSGSKSGNTASLTISGLQAEDEADYYCASYRSSAHNIVFGGGTKLTVLGGGGSGGGGSGGGGSEVQLVESGGGLVQPGGSLRLSCAASGFTFSSYAMSWVRQAPGKGLEWVSTINSGTGSPYYADSVKGRFTISRDNSKNTLYLQMNSLRAEDTAVYYCAKNFFDGSWFLGPPAMDYWGQGTLVTVSSHHHHHH
notes: AS170036 VL1VH1 scFv mutein
B2: LH98V (scFv)
scFv: B1 scFv with A97D, H98V
notes: AS170036 VL1VH1 scFv mutein; also called AS170036 VL1VH1-VLH98V
B3: LD97R (scFv)
scFv: B1 scFv with A97R
notes: AS170036 VL1VH1 scFv mutein
B4: LY93V (scFv)
scFv: B1 scFv with Y93V, A97D
notes: AS170036 VL1VH1 scFv mutein
B5: LH98G (scFv)
scFv: B1 scFv with A97D, H98G
notes: AS170036 VL1VH1 scFv mutein
B6: LY93I (scFv)
scFv: B1 scFv with Y93I, A97D
notes: AS170036 VL1VH1 scFv mutein
B7: LD97H (scFv)
scFv: B1 scFv with A97H
notes: AS170036 VL1VH1 scFv mutein
B8: LH98M (scFv)
scFv: B1 scFv with A97D, H98M
notes: AS170036 VL1VH1 scFv mutein
B9: LY34W (scFv)
scFv: B1 scFv with Y34W, A97D
notes: AS170036 VL1VH1 scFv mutein
B10: LY93L (scFv)
scFv: B1 scFv with Y93L, A97D
notes: AS170036 VL1VH1 scFv mutein
B11: LE32D (scFv)
scFv: B1 scFv with E32D, A97D
notes: AS170036 VL1VH1 scFv mutein
B12: LH98N (scFv)
scFv: B1 scFv with A97D, H98N
notes: AS170036 VL1VH1 scFv mutein
B13: LH98T (scFv)
scFv: B1 scFv with A97D, H98T
notes: AS170036 VL1VH1 scFv mutein; also called AS170036 VL1VH1-VLH98T
B14: LH98W (scFv)
scFv: B1 scFv with A97D, H98W
notes: AS170036 VL1VH1 scFv mutein
B15: LD97K (scFv)
scFv: B1 scFv with A97K
notes: AS170036 VL1VH1 scFv mutein
B16: LH98Y (scFv)
scFv: B1 scFv with A97D, H98Y
notes: AS170036 VL1VH1 scFv mutein
B17: LH98A (scFv)
scFv: B1 scFv with A97D, H98A
notes: AS170036 VL1VH1 scFv mutein; also called AS170036 VL1VH1-VLH98A
B18: LY93F (scFv)
scFv: B1 scFv with Y93F, A97D
notes: AS170036 VL1VH1 scFv mutein
B19: LD97G (scFv)
scFv: B1 scFv with A97G
notes: AS170036 VL1VH1 scFv mutein
B20: LE32W (scFv)
scFv: B1 scFv with E32W, A97D
notes: AS170036 VL1VH1 scFv mutein; also called AS170036 VL1VH1-VLE32W
B21: LE32S (scFv)
scFv: B1 scFv with E32S, A97D
notes: AS170036 VL1VH1 scFv mutein
B22: LD97N (scFv)
scFv: B1 scFv with A97N
notes: AS170036 VL1VH1 scFv mutein
B23: LD97F (scFv)
scFv: B1 scFv with A97F
notes: AS170036 VL1VH1 scFv mutein
B24: LY93M (scFv)
scFv: B1 scFv with Y93M, A97D
notes: AS170036 VL1VH1 scFv mutein
B25: LH98P (scFv)
scFv: B1 scFv with A97D, H98P
notes: AS170036 VL1VH1 scFv mutein; also called AS170036 VL1VH1-VLH98P
B26: LD97T (scFv)
scFv: B1 scFv with A97T
notes: AS170036 VL1VH1 scFv mutein
B27: LH98F (scFv)
scFv: B1 scFv with A97D, H98F
notes: AS170036 VL1VH1 scFv mutein; also called AS170036 VL1VH1-VLH98F
B28: LD97S (scFv)
scFv: B1 scFv with A97S
notes: AS170036 VL1VH1 scFv mutein
B29: LH98Q (scFv)
scFv: B1 scFv with A97D, H98Q
notes: AS170036 VL1VH1 scFv mutein; also called AS170036 VL1VH1-VLH98Q
B30: LE32Y (scFv)
scFv: B1 scFv with E32Y, A97D
notes: AS170036 VL1VH1 scFv mutein
B31: LY93Q (scFv)
scFv: B1 scFv with Y93Q, A97D
notes: AS170036 VL1VH1 scFv mutein
B32: LH98S (scFv)
scFv: B1 scFv with A97D, H98S
notes: AS170036 VL1VH1 scFv mutein
B33: LE32G (scFv)
scFv: B1 scFv with E32G, A97D
notes: AS170036 VL1VH1 scFv mutein
B34: LH98I (scFv)
scFv: B1 scFv with A97D, H98I
notes: AS170036 VL1VH1 scFv mutein; also called AS170036 VL1VH1-VLH98I
B35: LY34H (scFv)
scFv: B1 scFv with Y34H, A97D
notes: AS170036 VL1VH1 scFv mutein
B36: LY93W (scFv)
scFv: B1 scFv with Y93W, A97D
notes: AS170036 VL1VH1 scFv mutein
B37: LH98L (scFv)
scFv: B1 scFv with A97D, H98L
notes: AS170036 VL1VH1 scFv mutein
B38: LH98R (scFv)
scFv: B1 scFv with A97D, H98R
notes: AS170036 VL1VH1 scFv mutein

Key:
[1] = target: T1, AFP158/HLA-A*02:01 complex (human); assay: SPR, KD ratio to AS170036 VL1VH1;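 further: crude scFv captured on a sensor chip, peptide–HLA complex passed over at several concentrations, association then buffer dissociation, KD derived from on- and off-rates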
T1 construct: flowed over the chip in SPR; also called AFP158 pro
Procedure: (§1) The experiment was carried out as follows. The crude scFv protein were captured onto the sensorchip. Different concentrations (320, 160, 40 nM) of AFP158/HLA-A*02:01 complex flowed over the sensorchip surface, and were allowed to bind the antibody fragment for 100 s followed by injection of the running buffer to allow dissociation of the complex. On-rate (kd) and off-rate (kd) were calculated based on association and dissociation curve, and were used to estimate the equilibrium dissociation constant (KD).

[2] = target: T1, AFP158/HLA-A*02:01 complex; assay: SPR, scFv captured, pMHC in flow;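 further: complex injected at several concentrations over crude scFv, association then running-buffer dissociation, KD estimated from kinetic on- and off-rate constants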
Procedure: as §1

[3] = target: T1, AFP158/HLA-A*02:01 complex; assay: SPR, KD ratio to AS170036 VL1VH1; remark: listed apart in the source;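 further: crude scFv captured on a sensor chip, peptide–HLA complex passed over at several concentrations, association then buffer dissociation, KD derived from on- and off-rates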
Procedure: as §1

[4] = target: T1, AFP158/HLA-A*02:01 complex; assay: SPR, scFv captured, pMHC in flow; remark: listed apart in the source;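 further: complex injected at several concentrations over crude scFv, association then running-buffer dissociation, KD estimated from kinetic on- and off-rate constants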
Procedure: as §1

| Binder | Affinity increase [1] | Kd [2] | Affinity increase [3] | Kd [4] |
| --- | --- | --- | --- | --- |
| B1 | 0.5 fold | 470 nM | 0.5 fold | 470 nM |
| B2 | 3.2 fold | 78 nM | 3.2 fold | 78 nM |
| B3 | 0.5 fold | 520 nM | 0.5 fold | 520 nM |
| B4 | 0.5 fold | 450 nM | 0.5 fold | 450 nM |
| B5 | 0.9 fold | 280 nM | 0.9 fold | 280 nM |
| B6 | 0.6 fold | 440 nM | 0.6 fold | 440 nM |
| B7 | 0.6 fold | 420 nM | 0.6 fold | 420 nM |
| B8 | 1.8 fold | 140 nM | 1.8 fold | 140 nM |
| B9 | 0.6 fold | 410 nM | 0.6 fold | 410 nM |
| B10 | 1.3 fold | 180 nM | 1.3 fold | 180 nM |
| B11 | 1.3 fold | 190 nM | 1.3 fold | 190 nM |
| B12 | 1.5 fold | 160 nM | 1.5 fold | 160 nM |
| B13 | 2.9 fold | 84 nM | 2.9 fold | 84 nM |
| B14 | 1.2 fold | 200 nM | 1.2 fold | 200 nM |
| B15 | 0.6 fold | 410 nM | 0.6 fold | 410 nM |
| B16 | 1.6 fold | 160 nM | 1.6 fold | 160 nM |
| B17 | 2.3 fold | 110 nM | 2.3 fold | 110 nM |
| B18 | 1.8 fold | 140 nM | 1.8 fold | 140 nM |
| B19 | 0.8 fold | 310 nM | 0.8 fold | 310 nM |

| Binder | Affinity increase [1] | Kd [2] | Affinity increase [3] | Kd [4] |
| --- | --- | --- | --- | --- |
| B20 | 2.4 fold | 100 nM | 2.4 fold | 100 nM |
| B21 | 0.5 fold | 500 nM | 0.5 fold | 500 nM |
| B22 | 1 fold | 240 nM | 1 fold | 240 nM |
| B23 | 0.5 fold | 450 nM | 0.5 fold | 450 nM |
| B24 | 1.1 fold | 230 nM | 1.1 fold | 230 nM |
| B25 | 3.5 fold | 70 nM | 3.5 fold | 70 nM |
| B26 | 0.7 fold | 360 nM | 0.7 fold | 360 nM |
| B27 | 3.3 fold | 74 nM | 3.3 fold | 74 nM |
| B28 | 0.6 fold | 420 nM | 0.6 fold | 420 nM |
| B29 | 3.3 fold | 75 nM | 3.3 fold | 75 nM |
| B30 | 0.6 fold | 430 nM | 0.6 fold | 430 nM |
| B31 | 0.6 fold | 380 nM | 0.6 fold | 380 nM |
| B32 | 1.4 fold | 180 nM | 1.4 fold | 180 nM |
| B33 | 0.7 fold | 350 nM | 0.7 fold | 350 nM |
| B34 | 3.1 fold | 78 nM | 3.1 fold | 78 nM |
| B35 | 0.5 fold | 540 nM | 0.5 fold | 540 nM |
| B36 | 1 fold | 240 nM | 1 fold | 240 nM |
| B37 | 1.2 fold | 200 nM | 1.2 fold | 200 nM |
| B38 | 1.1 fold | 220 nM | 1.1 fold | 220 nM |

Reference: patent publication US20240279318A1 (NANJING LEGEND BIOTECH, published 2024)
